Measured values taken from article PMC9688808, “Discovery of Novel Lin28 Inhibitors to Suppress Cancer Cell Stemness” (Cancers, 2022).

Tests used:
Lin28B ZKD [1] = biological target: T1, Lin28B ZKD (Homo sapiens, UniProt Q6ZN17 110-174); experiment: fluorescence polarization; 1 nM probe, 1 nM-50 uM protein; dose-dependent increase; EMSA: 20 mM HEPES-NaOH pH 7.4, 2 mM DTT, 3 mM MgCl2, 0.05% NP-40, protease inhibitors, 0.1 ug poly[dI:dC], 30 min 37 C (Methods 300 nM probe, legends 10 nM); FP: 30 uL, room temperature, 20 min, buffer not stated; details: protein: recombinant; tags: His
T1 sequence: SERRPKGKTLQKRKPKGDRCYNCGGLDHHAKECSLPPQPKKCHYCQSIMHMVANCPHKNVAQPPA

Lin28B ZKD [2] = biological target: T1, Lin28B ZKD; experiment: competition; fluorescence polarization; 1 nM-50 uM unlabeled oligo vs 1 nM FAM probe, 10 uM protein; dose-dependent reduction; EMSA: 20 mM HEPES-NaOH pH 7.4, 2 mM DTT, 3 mM MgCl2, 0.05% NP-40, protease inhibitors, 0.1 ug poly[dI:dC], 30 min 37 C (Methods 300 nM probe, legends 10 nM); FP: 30 uL, room temperature, 20 min, buffer not stated; details: protein: recombinant; tags: His

## UUAGGGCACGAGAUUUUGCCCACAAGGAGUU (structured_RNA) [FAM-Let-7 probe]
Lin28B ZKD [1]
  binding result: binds

## UUAGGGCACGAGAUUUUGCCCACAAGGAGUU (structured_RNA) [non-labeled Let-7 oligo (FP competitor)]
Lin28B ZKD [2]
  binding result: binds
